# Test results from publication PMC2367712.
# “And” between values parts separate entries of the source, which are not always exact repeats. Identical values can stand only once.
# Target: M. tuberculosis Lsr2 R86A mutant protein (M. tuberculosis)
# Assay: cross-linking
substance,measurement,value
M. tuberculosis Lsr2 R86A mutant protein (natural protein),stoichiometry N,2 and 4
